{"source": "patent US20150098933", "proteins": {"B1": {"name": "bovine enterokinase (EC 3.4.21.9) (protein)", "chain": "IVGGSDSREGAWPWVVALYFDDQQVCGASLVSRDWLVSAAHCVYGRNMEPSKWKAVLGLHMASNLTSPQIETRLIDQIVINPHYNKRRKNNDIAMMHLEMKVNYTDYIQPICLPEENQVFPPGRICSIAGWGALIYQGSTADVLQEADVPLLSNEKCQQQMPEYNITENMVCAGYEAGGVDSCQGDSGGPLMCQENNRWLLAGVTSFGYQCALPNRPGVYARVPRFTEWIQSFLH"}}, "key": {"[1]": {"target": "T1, full-length rhLAL produced in HEK293 cells", "T1 chain": "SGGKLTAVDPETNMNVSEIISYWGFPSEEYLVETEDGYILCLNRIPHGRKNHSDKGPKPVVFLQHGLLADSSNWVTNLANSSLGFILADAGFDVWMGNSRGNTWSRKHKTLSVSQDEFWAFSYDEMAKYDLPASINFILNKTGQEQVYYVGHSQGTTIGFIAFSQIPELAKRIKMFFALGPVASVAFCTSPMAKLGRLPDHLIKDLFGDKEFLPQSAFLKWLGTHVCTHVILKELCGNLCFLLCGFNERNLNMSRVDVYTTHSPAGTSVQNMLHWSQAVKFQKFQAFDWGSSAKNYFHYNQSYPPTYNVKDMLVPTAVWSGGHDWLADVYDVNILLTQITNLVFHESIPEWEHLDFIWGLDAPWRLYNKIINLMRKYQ"}, "[2]": {"target": "T2, ekLAL (rhLAL containing the FLAG affinity and ek cleavage site, designed to give TLAL-K76), produced in HEK293 cells", "T2 chain": "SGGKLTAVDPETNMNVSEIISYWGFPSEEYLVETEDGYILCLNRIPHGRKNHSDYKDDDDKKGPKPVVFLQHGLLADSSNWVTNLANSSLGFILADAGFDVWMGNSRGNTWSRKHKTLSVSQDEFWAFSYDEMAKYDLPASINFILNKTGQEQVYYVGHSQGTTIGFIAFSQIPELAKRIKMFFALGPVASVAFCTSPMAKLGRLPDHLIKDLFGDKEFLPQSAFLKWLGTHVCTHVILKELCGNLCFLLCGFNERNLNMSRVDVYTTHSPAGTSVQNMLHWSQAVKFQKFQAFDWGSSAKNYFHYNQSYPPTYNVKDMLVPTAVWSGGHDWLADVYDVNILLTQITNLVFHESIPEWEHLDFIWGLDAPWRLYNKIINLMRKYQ"}, "[3]": {"target": "T3, ekLAL (rhLAL containing the FLAG affinity and ek cleavage site, designed to give TLAL-G77), produced in HEK293 cells", "T3 chain": "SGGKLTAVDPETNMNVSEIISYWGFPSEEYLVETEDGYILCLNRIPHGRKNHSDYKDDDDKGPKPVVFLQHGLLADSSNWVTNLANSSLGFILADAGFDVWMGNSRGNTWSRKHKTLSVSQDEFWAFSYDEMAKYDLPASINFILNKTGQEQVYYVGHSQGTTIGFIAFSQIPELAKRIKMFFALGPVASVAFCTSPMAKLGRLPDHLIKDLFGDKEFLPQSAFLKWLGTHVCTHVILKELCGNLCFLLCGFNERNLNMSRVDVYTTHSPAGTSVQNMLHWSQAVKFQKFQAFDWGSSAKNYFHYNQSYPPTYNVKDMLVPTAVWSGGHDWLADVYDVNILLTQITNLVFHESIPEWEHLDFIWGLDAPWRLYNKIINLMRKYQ"}, "[4]": {"target": "T4, rhLAL protein produced from transgenic chicken", "T4 chain": "T1 chain"}}}
{"protein": "B1", "values": [{"measurement": "proteolytic cleavage (molecular weight before and after ek digestion)", "setting": "[1]", "result": "non-specific ek cleavage did not occur during the digestion reaction"}, {"measurement": "proteolytic cleavage (ek digestion, 6 days at room temperature)", "setting": "[2]", "result": ">70", "unit": "% cleavage into TLAL-K76"}, {"measurement": "proteolytic cleavage (ek digestion, 6 days at room temperature, SDS-PAGE)", "setting": "[3]", "result": "approximately 50% cleavage into TLAL-G77"}, {"measurement": "proteolytic cleavage (molecular weight before and after ek digestion)", "setting": "[4]", "result": "non-specific ek cleavage did not occur during the digestion reaction"}]}
